# Results: patent US20240343781A1 (published 2024)
# B1: 10-40 (antibody, V domains shown)
# VH: QLQLQESGPGLVKPSETLSLTCTVSGGSISSSNFYWGWIRQPPGKGLEWIASITYSGRTFYNPSLKSRVAISVDTSKNQFSLKLSSVTAADTAVYYCARTFPSYYDRSGYHYLNYGMDVWGQGTTVTVSS
# VL: NFMLTQPHSMSESPGKTVTISCTRSSGSIASNYVQWYQQRPGSSPTTVIYEDNQRPSGVPDRFSGSIDSSSNSASLTISGLKTEDEADYYCQSYDSSSWVFGGGTKLTVL
# B2: 10-28 (antibody, V domains shown)
# VH: QVQLVESGGGVVQPGRSLRLSCAASGFTFSSYDMHWVRQAPGKGLEWVAVISYDGSSKFYAESVKGRFTISRDNSKNTLYLQMNSLRAEETAVYYCVKDGEQLVPLFDYWGQGTLVTVSS
# VL: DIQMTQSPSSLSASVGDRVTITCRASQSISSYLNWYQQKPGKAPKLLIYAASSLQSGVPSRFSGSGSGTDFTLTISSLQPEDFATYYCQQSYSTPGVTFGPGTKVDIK
# B3: 11-11 (antibody, V domains shown)
# VH: QVQLQESGPGLVKPSQTLSLTCTVSGGSISSGGYYWSWIRQHPGKGLEWIGYIYYSGSTYYNPSLKSRVTISVDTSKNQFSLKVSSVTAADTAVYYCASSNYYDGSGYNLLESYGMDVWGQGTSVTVSS
# VL: QSVLTQPPSVSGAPGQRVTISCTGSSSNIGAGYDVHWYQQLPGTAPKLLIYGNSNRPSGVPDRFSGSRSGTSASLAITGLQAEDEADYYCQSYDSSLSGSWVFGGGTKVTVL
# B4: engineered monoclonal antibody 10-40 (antibody, V domains shown)
# VH: B1 VH
# VL: B1 VL
# B5: engineered monoclonal antibody 10-28 (antibody, V domains shown)
# VH: B2 VH
# VL: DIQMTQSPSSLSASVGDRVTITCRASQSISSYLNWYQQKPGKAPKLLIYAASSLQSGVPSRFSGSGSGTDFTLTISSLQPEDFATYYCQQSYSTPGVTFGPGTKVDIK
# B6: engineered monoclonal antibody 11-11 (antibody, V domains shown)
# VH: B3 VH
# VL: B3 VL
# Molecular target: SARS-CoV-2 Spike
# Experiment: SPR
row,Binder,Kd [pM]
1,B1,4.52
2,B2,0.782
3,B3,1540

# Molecular target: SARS-COV spike trimer (SARS-CoV, UniProt P59594 14-1190)
# Experiment: SPR
row,Binder,Kd [pM]
1,B4,2.21
2,B5,3.69
3,B6,4.51

# Molecular target: WIV1
# Experiment: ELISA
row,Binder,EC50 [ng/mL]
1,B1,4
2,B2,3
3,B3,6

# Molecular target: RaTG13
# Experiment: ELISA
row,Binder,EC50 [ng/mL]
1,B1,3
2,B2,2
3,B3,> 10000

# Molecular target: SHC014
# Experiment: ELISA
row,Binder,EC50 [ng/mL]
1,B1,5
2,B2,2
3,B3,6

# Molecular target: Rf1
# Experiment: ELISA
row,Binder,EC50 [ng/mL]
1,B1,4
2,B2,4
3,B3,> 10000

# Molecular target: BtKY72
# Experiment: ELISA
row,Binder,EC50 [ng/mL]
1,B1,4
2,B2,4
3,B3,7

# Molecular target: Yunnan2011
# Experiment: ELISA
row,Binder,EC50 [ng/mL]
1,B1,37
2,B2,9
3,B3,> 10000

# Molecular target: BM-4831
# Experiment: ELISA
row,Binder,EC50 [ng/mL]
1,B1,3
2,B2,2
3,B3,1500

# Molecular target: SARS-CoV
# Experiment: ELISA
row,Binder,EC50 [ng/mL]
1,B1,8
2,B2,5
3,B3,19

# Molecular target: Rs4081
# Experiment: ELISA
row,Binder,EC50 [ng/mL]
1,B1,9
2,B2,7
3,B3,> 10000

# Molecular target: GX-Pangolin
# Experiment: ELISA
row,Binder,EC50 [ng/mL]
1,B1,4
2,B2,4
3,B3,> 10000

# Molecular target: RmYN02
# Experiment: ELISA
row,Binder,EC50 [ng/mL]
1,B1,10
2,B2,6
3,B3,> 10000
